Source: publication PMC4616025, “Identification of a phosphinothricin-resistant mutant of rice glutamine synthetase using DNA shuffling” (Scientific Reports, 2015)

Substrate: N[C@@H](CCC(=O)O)C(=O)O
Test: purified protein
Type: biochemical, Oryza sativa
Conditions: general assay: 5 mM ATP, 30 mM hydroxylamine, 50 mM MgCl2, 100 mM Tris-HCl pH 7.5, 37 °C, Km measured as in a cited method

B1: OsGS1S (Oryza sativa Japonica Group) (protein)
chain: MASLTDLVNLNLSDTTEKIIAEYIWIGGSGMDLRSKARTLSGPVTDPSKLPKWNYDGSSTGQAPGEDSEVILYPQAIFKDPFRKGNNILVMCDCYTPAGEPIPTNKRHNAAKIFSSPEVASEEPWYGIEQEYTLLQKDINWPLGWPVGGFPGPQGPYYCGIGADKSFGRDIVDSHYKACLYAGINISGINGEVMPGQWEFQVGPSVGISAGDQVWVARYILERITEIAGVVVSFDPKPIPGDWNGAGAHTNYSTKSMRNDGGYEIIKSAIEKLKLRHKEHISAYGEGNERRLTGRHETADINTFSWGVANRGASVRVGRETEQNGKGYFEDRRPASNMDPYIVTSMIAETTIIWKP
notes: full-length, plant-codon-optimized synthetic gene (PTDS), vector pYM4087 with six-histidine tag, expressed in E. coli BL21(DE3), Ni-NTA purified; forward primer atggcttctctcaccga
Work on B1 yielded a Km of 1.22 ± 0.011 mM.

B2: OsGS1S (Oryza sativa Japonica Group; R295K) (protein)
chain: MASLTDLVNLNLSDTTEKIIAEYIWIGGSGMDLRSKARTLSGPVTDPSKLPKWNYDGSSTGQAPGEDSEVILYPQAIFKDPFRKGNNILVMCDCYTPAGEPIPTNKRHNAAKIFSSPEVASEEPWYGIEQEYTLLQKDINWPLGWPVGGFPGPQGPYYCGIGADKSFGRDIVDSHYKACLYAGINISGINGEVMPGQWEFQVGPSVGISAGDQVWVARYILERITEIAGVVVSFDPKPIPGDWNGAGAHTNYSTKSMRNDGGYEIIKSAIEKLKLRHKEHISAYGEGNERRLTGKHETADINTFSWGVANRGASVRVGRETEQNGKGYFEDRRPASNMDPYIVTSMIAETTIIWKP
notes: as for B1
Work on B2 yielded a Km (stated gain) of 8.04 ± 0.015 mM.

B3: OsGS1S (Oryza sativa Japonica Group; A63E/R295K/T293A/V193A) (protein)
chain: MASLTDLVNLNLSDTTEKIIAEYIWIGGSGMDLRSKARTLSGPVTDPSKLPKWNYDGSSTGQEPGEDSEVILYPQAIFKDPFRKGNNILVMCDCYTPAGEPIPTNKRHNAAKIFSSPEVASEEPWYGIEQEYTLLQKDINWPLGWPVGGFPGPQGPYYCGIGADKSFGRDIVDSHYKACLYAGINISGINGEAMPGQWEFQVGPSVGISAGDQVWVARYILERITEIAGVVVSFDPKPIPGDWNGAGAHTNYSTKSMRNDGGYEIIKSAIEKLKLRHKEHISAYGEGNERRLAGKHETADINTFSWGVANRGASVRVGRETEQNGKGYFEDRRPASNMDPYIVTSMIAETTIIWKP
notes: as for B1
With B3 the Km (stated gain) was 7.99 ± 0.021 mM.
